Tests used:
C1 inhibitor, P05155 = molecular target: T1, C1 inhibitor, P05155
T1 chain: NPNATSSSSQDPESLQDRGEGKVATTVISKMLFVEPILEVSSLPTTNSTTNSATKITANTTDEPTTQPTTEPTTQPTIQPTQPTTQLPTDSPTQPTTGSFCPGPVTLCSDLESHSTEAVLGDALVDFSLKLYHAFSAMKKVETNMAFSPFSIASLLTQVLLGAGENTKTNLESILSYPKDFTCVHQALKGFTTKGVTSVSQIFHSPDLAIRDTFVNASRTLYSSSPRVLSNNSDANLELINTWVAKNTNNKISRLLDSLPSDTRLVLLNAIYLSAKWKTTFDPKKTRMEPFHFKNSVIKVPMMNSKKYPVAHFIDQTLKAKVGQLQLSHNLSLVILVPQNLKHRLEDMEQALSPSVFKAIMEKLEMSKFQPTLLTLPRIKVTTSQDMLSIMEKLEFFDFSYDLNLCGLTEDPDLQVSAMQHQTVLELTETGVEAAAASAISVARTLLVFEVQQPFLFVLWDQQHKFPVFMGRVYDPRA

β-casein = molecular target: T2, β-casein
T2 sequence (P02666 16-224, species assumed, looked up): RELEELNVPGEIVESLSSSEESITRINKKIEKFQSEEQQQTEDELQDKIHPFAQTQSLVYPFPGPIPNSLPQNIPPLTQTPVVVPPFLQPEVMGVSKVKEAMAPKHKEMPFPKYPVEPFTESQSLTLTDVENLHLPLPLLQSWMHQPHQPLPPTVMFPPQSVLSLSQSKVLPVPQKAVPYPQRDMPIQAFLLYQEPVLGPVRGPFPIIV

C2, P06681 = molecular target: T3, C2, P06681
T3 chain: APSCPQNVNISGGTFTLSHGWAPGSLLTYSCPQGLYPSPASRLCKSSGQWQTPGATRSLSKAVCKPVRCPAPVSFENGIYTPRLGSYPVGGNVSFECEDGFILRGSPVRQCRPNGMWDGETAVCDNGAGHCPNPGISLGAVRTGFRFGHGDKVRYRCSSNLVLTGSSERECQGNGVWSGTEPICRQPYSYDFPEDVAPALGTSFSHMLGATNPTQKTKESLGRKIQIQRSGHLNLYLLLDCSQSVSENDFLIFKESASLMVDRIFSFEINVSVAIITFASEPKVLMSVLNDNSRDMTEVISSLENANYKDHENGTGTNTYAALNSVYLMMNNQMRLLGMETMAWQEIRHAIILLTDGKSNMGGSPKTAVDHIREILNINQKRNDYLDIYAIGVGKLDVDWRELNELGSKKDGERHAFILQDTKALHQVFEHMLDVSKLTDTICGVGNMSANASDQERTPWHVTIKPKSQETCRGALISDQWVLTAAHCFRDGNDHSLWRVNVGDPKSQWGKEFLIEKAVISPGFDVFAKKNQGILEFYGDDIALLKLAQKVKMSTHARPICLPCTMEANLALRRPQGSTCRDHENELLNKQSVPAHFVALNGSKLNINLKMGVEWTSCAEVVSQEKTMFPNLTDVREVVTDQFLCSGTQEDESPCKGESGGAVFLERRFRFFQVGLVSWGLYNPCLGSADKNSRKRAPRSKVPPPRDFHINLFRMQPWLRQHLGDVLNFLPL

C1s, P09871 = molecular target: T4, C1s, P09871
T4 chain: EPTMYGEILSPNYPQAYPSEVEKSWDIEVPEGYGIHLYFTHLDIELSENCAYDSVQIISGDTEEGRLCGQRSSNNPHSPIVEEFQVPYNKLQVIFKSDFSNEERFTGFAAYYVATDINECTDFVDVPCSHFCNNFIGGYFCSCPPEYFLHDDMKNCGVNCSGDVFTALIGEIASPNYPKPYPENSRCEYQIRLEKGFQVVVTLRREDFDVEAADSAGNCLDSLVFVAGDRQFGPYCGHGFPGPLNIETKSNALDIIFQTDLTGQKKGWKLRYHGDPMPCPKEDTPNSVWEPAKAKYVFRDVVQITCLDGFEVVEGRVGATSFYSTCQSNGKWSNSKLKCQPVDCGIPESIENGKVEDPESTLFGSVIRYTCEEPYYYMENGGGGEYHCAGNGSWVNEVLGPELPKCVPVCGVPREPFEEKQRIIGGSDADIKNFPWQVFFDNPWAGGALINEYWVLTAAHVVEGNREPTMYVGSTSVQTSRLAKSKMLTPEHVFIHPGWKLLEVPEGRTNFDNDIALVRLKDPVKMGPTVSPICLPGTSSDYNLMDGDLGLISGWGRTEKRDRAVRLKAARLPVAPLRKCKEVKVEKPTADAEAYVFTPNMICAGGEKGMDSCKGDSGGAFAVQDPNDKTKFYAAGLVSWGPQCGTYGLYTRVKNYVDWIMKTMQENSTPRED

human C5a, P01031 = molecular target: T5, human C5a, P01031
T5 chain: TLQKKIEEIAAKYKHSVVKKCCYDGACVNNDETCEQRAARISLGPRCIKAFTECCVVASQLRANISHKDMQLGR

Chain of C3a, P01024 (P01024 672-748): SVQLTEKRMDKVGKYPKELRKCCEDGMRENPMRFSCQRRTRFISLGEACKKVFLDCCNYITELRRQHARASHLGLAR
Chain of Properidin, P27918 (P27918 28-469): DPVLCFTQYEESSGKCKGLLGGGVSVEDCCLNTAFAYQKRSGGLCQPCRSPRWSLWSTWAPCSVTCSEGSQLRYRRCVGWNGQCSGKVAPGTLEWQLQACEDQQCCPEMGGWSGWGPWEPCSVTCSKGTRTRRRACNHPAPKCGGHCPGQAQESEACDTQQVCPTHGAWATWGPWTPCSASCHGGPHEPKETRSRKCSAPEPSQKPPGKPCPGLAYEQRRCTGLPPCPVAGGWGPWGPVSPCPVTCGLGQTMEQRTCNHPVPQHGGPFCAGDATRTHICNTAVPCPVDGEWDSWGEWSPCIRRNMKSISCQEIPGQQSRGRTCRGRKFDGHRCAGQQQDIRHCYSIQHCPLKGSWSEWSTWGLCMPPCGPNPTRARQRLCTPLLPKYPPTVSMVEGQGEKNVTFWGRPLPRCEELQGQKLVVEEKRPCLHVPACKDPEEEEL
Chain of Factor B, P00751 (P00751 26-764): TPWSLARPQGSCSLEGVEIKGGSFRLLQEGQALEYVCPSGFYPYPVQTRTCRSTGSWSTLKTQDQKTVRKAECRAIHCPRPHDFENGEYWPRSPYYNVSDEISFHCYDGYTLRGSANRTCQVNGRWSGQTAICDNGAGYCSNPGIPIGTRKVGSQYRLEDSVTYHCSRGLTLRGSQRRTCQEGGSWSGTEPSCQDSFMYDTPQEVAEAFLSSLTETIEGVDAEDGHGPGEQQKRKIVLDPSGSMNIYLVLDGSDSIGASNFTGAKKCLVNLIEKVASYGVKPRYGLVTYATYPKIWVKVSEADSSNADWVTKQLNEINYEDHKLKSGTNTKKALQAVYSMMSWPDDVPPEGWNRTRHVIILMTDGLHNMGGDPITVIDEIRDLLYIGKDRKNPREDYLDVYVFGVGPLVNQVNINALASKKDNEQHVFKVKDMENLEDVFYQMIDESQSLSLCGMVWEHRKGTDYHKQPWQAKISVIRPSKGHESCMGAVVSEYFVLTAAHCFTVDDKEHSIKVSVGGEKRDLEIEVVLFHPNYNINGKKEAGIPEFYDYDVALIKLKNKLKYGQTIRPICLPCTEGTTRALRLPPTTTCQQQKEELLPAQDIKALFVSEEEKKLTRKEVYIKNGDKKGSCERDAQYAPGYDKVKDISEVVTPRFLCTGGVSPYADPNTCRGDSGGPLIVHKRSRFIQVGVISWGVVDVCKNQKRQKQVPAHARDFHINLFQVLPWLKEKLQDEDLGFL

B1: PrtV(Pro-B) (protein)
chain: DTVNGSESVKTEATQASGSSVQDNATAKTTVTTNSNSSNNVSNVQTDTVKEAATSNVDSVASQNQATTAQQAKTTADTADQTVPPTTYKDHVKGNVQTAWDNGYKGQGMVVAVIDSGADTNHKDFSKAPESPAISKEDADKKISELGYGKYASEKFPFVYNYASRDNNWVKDDGPDASEHGQHVAGIIGADGQPNGNERYAVGVAPETQLMMMRVFNDQFADENTDDIAQAIYDAVKLGANVIQMSLGQGVAAANLNDVEQKAVEYATQHGVFVSISASNNGNSASVTGEEVPYKPGGADGNFEPFSSSTVANPGASRNAMTVAAENSVVGAGDDMADFSSWGPLQDFTLKPDVSAPGVSVTSTGNDNRYNTMSGTSMAGPFNAGVAALVMQRLKATTNLNGADLVQATKALIMNTAKPMTQQGYDTPVSPRRQGAGEIDAGAATESPVYVVAADGTSSVSLRKVGDSTQFALTFKNLSDKDQTYTFDDFGGGLTEVRDADTGTFHDVYLAGAHVYGNKTVTVKAGQSATYNFTLSLTGLKENQLVEGWLRFVGNDGQNQLVVPYLAYYGDMTSEDVFDKAANQEGTVYGGNYFVNEDNYPRGVADEDSLKALVNLEGNYNWQQVAKLYQDGKVAFSPNADGKSDLLKPYAFVKQNLKDLKVEVLDKSGKVVRVVADEQGLDKSYYESGVNKDVTLSVSMRNNPNTLAWDGKVYDDKAGEMVNAADGEYTYRYVATLYNDGVNKVQTADYPVVIDTTAPVLSNVKYDAATHTLSFDYKDTGSGFTDYSYAVVKVNDKTFGYKLNDGKNSKFLDAAKTSGTFKAVLGSDTLAALTAAKNALSVAVSDVADNTSTVTLLVNGNNDATTKVSVWNATNGLELDQSSPDYQAATSTYNLRGNATSDFYYNGALVQVDNSGNFVVPVSTSDTAVVFTSDAAGKNVVYKLNTATPKAVFAWQVNNTVKENFGIVLDTVVSNNKDDVVVQAAVTKGDNVEAYARDYFTGAVYKADVKDGLATFHVKVTNNSGRTVLLGWTEVVGPTFNDVQRTSANGVYLGVDTDTENPTPAPAFTSADQLGTNVVQEKADSATIGNPGDLPGHSLKDLTTRADANPDIHFDYLKDNDYNWVGAQAVKDGVYNPSTQVFTLTGKVDPNVKSLVVLGDSYNEDDPVNKVNLNSDGTFSFQFHTAPTSQRPVAYIYTKDDGSTTRGTMELILDTVLPTLSLNNVANLQLDSNGDYQVYTNNKDFSVSGEATDNLDGYRFFFNGDNDYREFHNSGVNFVAEAHQDGSTVTNPYPAYKFSKTFNLADATGETTHVYTLSVVDLTGNTVTRKFYVHY
With B1 the “protein cleavage assay (SDS-PAGE)” value (IL-8) was “has activities against”, the “protein cleavage assay (SDS-PAGE)” value (ENA-78) was “has activities against” and the “proteolytic activity (SDS-PAGE)” value (Properidin, P27918) was “None of the complement proteins tested show evidence of breakdown”. The “proteolytic activity (SDS-PAGE)” value (C1 inhibitor, P05155) was “None of the complement proteins tested show evidence of breakdown”, the “digestion (SDS-PAGE)” value (fibrinogen) was “did not digest” and the “digestion (SDS-PAGE)” value (lysozyme) was “did not digest”. The “casein activity assay (SDS-PAGE)” value (β-casein) was “cleaving only α-casein in a limited manner”, the “proteolytic activity (SDS-PAGE)” value (C2, P06681) was “None of the complement proteins tested show evidence of breakdown” and the “protein cleavage assay (SDS-PAGE)” value (TNF-α) was “has activities against”. The “digestion (SDS-PAGE)” value (cytochrome C) was “did not digest”, the “protein cleavage assay (SDS-PAGE)” value (C3a, P01024) was “has activities against” and the “proteolytic activity (control of enzyme stock)” value (C3a, P01024) was “shown to be active against C3a”. For the same protein, the “digestion (SDS-PAGE)” value (haemoglobin) was “did not digest”, the “casein activity assay (SDS-PAGE)” value (κ-casein) was “cleaving only α-casein in a limited manner” and the “casein activity assay (SDS-PAGE)” value (α-casein) was “cleaving only α-casein in a limited manner”. The “proteolytic activity (SDS-PAGE)” value (C1s, P09871) was “None of the complement proteins tested show evidence of breakdown”, the “proteolytic activity (SDS-PAGE)” value (Factor B, P00751) was “None of the complement proteins tested show evidence of breakdown” and the “protein cleavage assay (SDS-PAGE)” value (human C5a, P01031) was “has activities against”.

From US20210386836
